Key:
[1] = biological target: T1, Recombinant His6-Rom2 CNH (862-1194), citron homology domain of Aspergillus fumigatus Rom2 (Aspergillus fumigatus, UniProt Q4WUI2 862-1194, biotinylated using the EZLink NHS-Peg4-Biotin reagent (for BLI)); test: BLI; biotinylated AfRom2 CNH on super streptavidin (SSA) biosensors, apo AfRho1 (no nucleotide) in solution, Octet Htx; 25 mM Hepes, 150 mM NaCl, 0.5 mM TCEP pH 7.5; six-point series from 1 mM in threefold dilutions; details: both partners purified
T1 construct: Rom2 (guanine nucleotide exchange factor of Rho1), Aspergillus fumigatus, UniProt Q4WUI2, CNH domain construct residues 862-1194; Cloned into a noncleavable 6His version of pGEX6P1 with primers P23 and P24, then the C terminus was truncated with primers P19 and P20; The N-terminal end of the tag is read from the printed name 'His6-Rom2 CNH'; also called AfRom2 CNH; AfRom2CNH; source: E. coli BL21 …
T1 sequence (looked up): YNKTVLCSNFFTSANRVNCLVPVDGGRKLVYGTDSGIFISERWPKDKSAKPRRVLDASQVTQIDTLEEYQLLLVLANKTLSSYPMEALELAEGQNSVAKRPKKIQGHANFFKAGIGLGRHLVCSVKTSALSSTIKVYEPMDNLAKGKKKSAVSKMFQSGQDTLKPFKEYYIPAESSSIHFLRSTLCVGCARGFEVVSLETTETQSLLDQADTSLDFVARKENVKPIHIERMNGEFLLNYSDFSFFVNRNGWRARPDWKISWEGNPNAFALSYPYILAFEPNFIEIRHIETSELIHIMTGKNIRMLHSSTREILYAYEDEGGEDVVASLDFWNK

[2] = biological target: T1, Recombinant His6-Rom2 CNH (862-1194), …; test: BLI; biotinylated AfRom2 CNH on super streptavidin (SSA) biosensors, AfRho1 with GDP or GTPγS (saturating nucleotide) in solution, Octet Red 384; 25 mM Hepes, 150 mM NaCl, 0.5 mM TCEP pH 7.5; six-point series from 1 mM in threefold dilutions; details: both partners purified

B1: Recombinant AfRho1 (residues 1 to 181) with F25N mutation (enzyme)
chain: not shown
notes: Rho1 GTPase, Aspergillus fumigatus, residues 1 to 181, F25N introduced for protein stability; Expressed from pGEX6P1; GST removed with PreScission protease; Used without nucleotide, with GDP or with GTPγS in BLI; also called apo AfRho1; AfRho1-GDP; source: E. coli BL21 (non-DE3), purified (Glutathione-Sepharose, PreScission cleavage, Superdex 75)
[1]
  Kd: 80 µM
[2]
  Kd: 200 µM

From paper PMC8488606, “The citron homology domain as a scaffold for Rho1 signaling” (Proceedings of the National Academy of Sciences of the …, 2021)
